Test results from the supplement of paper PMC10126150.
± gives the standard deviation of the averaged measurements.

The sequences below were run on ATP (assay: switch fluorescence ratio, 500 uM ATP over buffer (Cy3 cluster intensity, sum of 5 cycles each) (fold (ratio)); higher = stronger signal-on switching upon ATP binding; sequences stand for … in TCGTCGGCAGCGTCAGATGTGTATAAGAGACAGTTTTTTTTTTTTTTTTTTTTTTTTT…TC). Details: aptamer strand: ATP DNA aptamer (quencher-CACCTGGGGGAGTATTGCGGAGGAAGG + anchor), 100 nM annealed; ATP concentration: 500 uM.
In short: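 Imaging in selection buffer was followed by imaging after 15 min with 500 uM ATP at 22 °C, for Cy3-labelled switching-strand clusters annealed to 100 nM quencher-labelled ATP aptamer on a modified Illumina MiSeq flow-cell. Five of these buffer/ATP cycles ran, separated by NaOH stripping and re-annealing. The fluorescence ratio per cluster is summed target-cycle over summed buffer-cycle Cy3 intensity, averaged per switch-domain sequence; clusters outside 100-1000 RFU were removed.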
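Also: ATP exposure 15 min at 22 °C before imaging.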

Sequence	switch fluorescence ratio
GATTGAGCGG	1.01 ± 0.018
GATTGATTTA	1 ± 0.021
GATTGCAGTA	0.983 ± 0.036
GATTGCCGCG	1 ± 0.047
GATTGCCGTG	1.03 ± 0.024
GATTGCGGTC	1.03 ± 0.016
GATTGCTGGT	0.9513 ± 0.0046
GATTGGATCG	0.9904 ± 0.0051
GATTGGCGCG	1.006 ± 0.0031
GATTGGGCTC	1.02 ± 0.036
GATTGGGGCT	1.02 ± 0.039
GATTGGGTGT	1.03 ± 0.054
GATTGGTATT	0.995 ± 0.044
GATTGGTTCC	1.05 ± 0.036
GATTGTAGGT	1 ± 0.015
GATTGTGATG	0.9724 ± 0.0055
GATTGTGTG	0.998 ± 0.03
GATTTAATAG	0.9625 ± 0.0076
GATTTAATCC	0.974 ± 0.032
GATTTACTGG	1.04 ± 0.024
GATTTAGACG	0.945 ± 0.06
GATTTAGATT	1 ± 0.046
GATTTATATC	0.993 ± 0.028
GATTTCAGCT	0.997 ± 0.019
GATTTCATG	0.993 ± 0.019

Sequence	switch fluorescence ratio
GATTTCTCGT	0.9551 ± 0.0021
GATTTGACGG	0.983 ± 0.022
GATTTGATTT	0.991 ± 0.037
GATTTGCAGG	0.983 ± 0.033
GATTTGCATC	1.03 ± 0.025
GATTTGCTTT	0.98 ± 0.013
GATTTGGAGC	0.9911 ± 0.0076
GATTTGGAGT	0.985 ± 0.018
GATTTGGCTG	0.986 ± 0.019
GATTTGGGT	0.997 ± 0.051
GATTTGGTCA	0.9976 ± 0.0034
GATTTGGTCT	1.04 ± 0.035
GATTTGTAAA	0.99 ± 0.029
GATTTGTGAC	0.977 ± 0.052
GATTTGTGGG	0.994 ± 0.024
GATTTGTTAG	0.977 ± 0.022
GATTTTACGA	0.994 ± 0.052
GATTTTAGTA	1.01 ± 0.033
GATTTTCGTA	0.985 ± 0.025
GATTTTCGTC	0.996 ± 0.032
GATTTTGGGA	0.9815 ± 0.0068
GATTTTGTAA	1.012 ± 0.004
GATTTTGTGG	0.971 ± 0.02
GATTTTGTTC	1.03 ± 0.02
GCAAAAAAAG	0.96 ± 0.077

Sequence	switch fluorescence ratio
GCAAAGGGGT	0.996 ± 0.021
GCAAATGGAA	0.982 ± 0.042
GCAACGGCGG	1.01 ± 0.054
GCAACGGGAG	0.988 ± 0.035
GCAACTGATC	1.19 ± 0.031
GCAAGGCGGA	1.03 ± 0.0091
GCAATCGGAG	1.27 ± 0.025
GCAATGGTGG	1.04 ± 0.035
GCAATTGCCT	0.989 ± 0.029
GCACCACCGT	1.15 ± 0.014
GCACCATCCA	1.03 ± 0.013
GCACCTGGAT	1.01 ± 0.027
GCACCTGGGC	0.991 ± 0.039
GCACGAGCCC	1.316 ± 0.008
GCACGAGGGG	0.979 ± 0.047
GCACGGACAT	1.4 ± 0.031
GCACGGTACG	1 ± 0.031
GCACGGTCGG	1.009 ± 0.0021
GCACGTATTC	1.113 ± 0.0047
GCACGTGGTC	1.04 ± 0.019
GCACGTGTTC	1.119 ± 0.0096
GCACTAGACT	1.07 ± 0.029
GCACTCGGGA	1.03 ± 0.027
GCACTGGTAA	1.023 ± 0.0071
GCACTTGGTG	1.02 ± 0.024

Sequence	switch fluorescence ratio
GCACTTTAGC	1.03 ± 0.018
GCAGACCTAT	0.989 ± 0.058
GCAGACGTTC	1.012 ± 0.005
GCAGAGGGTC	0.9998 ± 0.0066
GCAGAGTGTT	1.02 ± 0.027
GCAGATTAGC	1.033 ± 0.0044
GCAGCAAAAG	1.029 ± 0.0029
GCAGCAATTG	3.03 ± 0.19
GCAGCACGCA	1.03 ± 0.032
GCAGCTGGTT	0.994 ± 0.026
GCAGCTTCGG	0.984 ± 0.014
GCAGGAAGAC	3.48 ± 0.81
GCAGGACGAC	2.38 ± 0.49
GCAGGAGCCT	1.01 ± 0.011
GCAGGATGGG	0.98 ± 0.019
GCAGGCCGAG	1.05 ± 0.037
GCAGGGGAAG	0.99 ± 0.019
GCAGGGGCTC	1 ± 0.027
GCAGGGGGTC	1 ± 0.021
GCAGGGTTCT	0.9721 ± 0.0021
GCAGGTTTGG	0.991 ± 0.033
GCAGTAGTGG	1.2 ± 0.33
GCAGTATCAC	1.05 ± 0.028
GCAGTATGGT	0.985 ± 0.016
GCAGTGCGCC	1.2 ± 0.05
